Reference: article PMC13436963

B1: Drosophila Notch LNR domain fused to split firefly luciferase fragments (LNR–NLuc and LNR–CLuc) [Drosophila melanogaster] / Drosophila Notch LNR domain fused to split firefly luciferase fragments (LNR–NLuc and LNR–CLuc) … (parent)
chain 1: GSGNDRYAADLEQQRAMCDKRGCTEKQGNGICDSDCNTYACNFDGNDCSLGINPWANCTANECWNKFKNGKCNEECNNAACHYDGHDCERKLKSCDSLFDAYCQKHYGDGFCDYGCNNAECSWDGLDCENKTQSPV
chain 2: B1 chain 1

Variants of: B1
Assay: split-luciferase complementation assay
Conditions: with Drosophila Notch LNR domain fused to split firefly luciferase fragments (LNR–NLuc and LNR–CLuc) [Drosophila melanogaster], S2 cells, n=5, parent: 1, read off a plot

ratio to parent (bar labelled 'F1563A + WT' (N-Luc / C-Luc)) | ratio to parent (bar labelled 'WT + F1563A' (N-Luc / C-Luc)) | ratio to parent (bar labelled 'H1570A + WT' (N-Luc / C-Luc)) | ratio to parent (bar labelled 'WT + H1570A' (N-Luc / C-Luc)) | Variant
0.97 | 1.1 |  |  | chain 1 F99A
 |  | 1 | 0.94 | chain 1 H106A
